Consider one molecule from patent CN109384845A (SHANGHAI INST BIOLOGICAL SCIENCES CAS, dated 2019).

The assay has as its target T1, 人CD40 (BJAB细胞) (human, UniProt P25942 21-277).
T1 construct: whole, on cells; On the surface of BJAB cells in FACS and in the functional assays; also called 细胞膜表面的CD40; 人CD40分子
The assay is described as follows: Western blot, hybridoma supernatant as primary antibody, HRP anti-mouse IgG secondary. For orientation: A western blot detects proteins with antibodies after separation by electrophoresis.

T1 sequence (P25942 21-277): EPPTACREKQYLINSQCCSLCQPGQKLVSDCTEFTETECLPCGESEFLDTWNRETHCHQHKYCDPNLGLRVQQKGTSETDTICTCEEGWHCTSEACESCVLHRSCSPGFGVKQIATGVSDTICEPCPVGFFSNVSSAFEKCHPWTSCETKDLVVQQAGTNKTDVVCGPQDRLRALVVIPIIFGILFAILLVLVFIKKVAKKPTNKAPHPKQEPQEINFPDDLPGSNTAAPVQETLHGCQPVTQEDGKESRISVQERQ

B1: CD40单克隆抗体 No.3 (antibody, V domains shown)
VH: EVQLQQSGPELVKPGASVKIVCKASGYTFTDYNMDWVKQSHGKSLEWIGDINPKNGGIIYNQKFKGKATLTVDKSSSTAYMELRSLTSEDTAVYYCVRRFAYWGQGTTVTVSS
VL: DIELTQSPTTMAASPGEKITITCSASSSISSNYLHWYQQKPGFSPKLLIYRTSNLAYGVPARFSGSGSGTSYSLTIGTMEAEDVATYYCQQGSSIPYTFGGGTKLEIKR
notes: Mouse hybridoma antibody, tested as culture supernatant
Regarding B1, the binding result is on record as “binds”.
